Assay results from PMC3392456.
Read-outs that look alike come from different tables or passages of the source. Values belong to the molecule of their own block, whether it stands above or below them.

Tests used:
[1] = target: SpMre11^cd R85A (S. pombe)
[2] = target: S. pombe Mre11 catalytic domain, SpMre11_(15–413) (S. pombe); assay: crystal structure
[3] = target: S. pombe Mre11 catalytic domain, SpMre11_(15–413) (S. pombe); assay: crystal structure; remark: listed apart in the source
[4] = target: S. pombe Mre11 catalytic domain, SpMre11_(15–413) (S. pombe); assay: crystal structure; remark: listed apart in the source

stoichiometry N [1]: 2
Molecule: SpMre11^cd R85A (domain or fragment)

stoichiometry N [2]: 2
stoichiometry N [3]: 2
Molecule: S. pombe Mre11 catalytic domain, SpMre11_(15–413) (domain or fragment)

stoichiometry N (Nbs1 per Mre11 (2:2)) [4]: 1
B1: S. pombe Nbs1 Mre11 interacting region, residues 474–531 (domain or fragment)
chain: ESEDDKAFEENRRLRNLGSVEYIRIMSSEKSNANSRHTSKYYSGRKNFKKFQKKASQK
